The record followed here is the RNAGym collection of RNA variant scans (doi:10.1073/pnas.2313332121).

This sample holds only a part of the variants without activity.

B1: TPR 5TU (parent)
chain: GGAUCUUCUCGAUCUAACAAAAAAGACAAAUCUGCCACAAAGCUUGAGAGCAUCUUCGGAUGCAGAGGCGGCAGCCUUCGGUGGCGCGAUAGCGCCAACGUUCUCAACUAUGACACGCAAAACGCGUGCUCCGUUGAAUGGAGUUUAUCAUG

The series covers variants of B1. Nature of the series: polymerase ribozyme fitness, log enrichment relative to wild type (log ratio); higher = more active; in vitro selection for triplet polymerase activity. In outline: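 To select mutant libraries of each subunit of a heterodimeric triplet polymerase ribozyme, built by PCR and transcribed, each was annealed with a biotinylated primer, partner subunit and triplets, then incubated frozen at −7 °C. Extended constructs were gel-excised, captured on streptavidin beads and amplified by RT-PCR, in one round carried out in triplicate. Illumina sequencing of input and output libraries kept genotypes with ≥10 input reads and ≥1 read per output. Fitness is the base-2 logarithm of genotype enrichment relative to wild-type enrichment, from inverse-variance-weighted replicate averages.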
For the variant GGAUCUUCUCGAUCUAACAAAAAAGACAAAUCUGCCACAAAGCUUGAGAGCAUCAUCGGAUGAAGAGGCGGCAGCCUUCGGUCUCGCGAUAGCGCCAACGUUCUCAACUAUGACACGCAAAACGGGUGCUCCGUAGAAUGGAGUUUAUCAUG, the “polymerase ribozyme fitness (log ratio)” value was not above -4.2.

Take GGAUCUUCUCGAUCUAACAAAAAAGACAAAUCUGCCACAAAGCUUGAGAGCAUCAUCGGAUGCAGAGGCGGCAGCCUUCGGUGGCGCGAUAGCGCCAACGUUCUCAACUAUGACUCGCAAAACGCGUGCUCCUUUGAAUGGAGUUUAUCAUG: the “polymerase ribozyme fitness (log ratio)” value was not above -4.2.

On to GGAUCUUCUCGAUCUAACAAAAAAGACAAAUCUGCCACAAAGCUUGAGAGCAUCAUCGGAUGCAGAGGCGGCAGCCUUCGGUGGCGCGAUAGCGCCAACGUUCUCAACUAUGACACGCAAAACGCGUGCUCCGUUGAGUGGAGUUUAUCAUG, for which the “polymerase ribozyme fitness (log ratio)” value was -2.51.

On to GGAUCUUCUCGAUCUAACAAAAAAGACAAAUCUGCCACAAAGCUUGAGAGCAUCAUCGGAUGCAGAGGCGGCAGCCUUCGGUGGCGCGAUAGCGCCAACGUUCUCAACUAUGACACGCAAAACGCGUGCUCCGUUGAUUGGAGUUUAUCAUG, for which the “polymerase ribozyme fitness (log ratio)” value was -3.9.

Take GGAUCUUCUCGAUCUAACAAAAAAGACAAAUCUGCCACAAAGCUUGAGAGCAUCAUCGGAUGCAGAGGCGGUAGCUUCCGGUGACGCGAUAGCGCCAACGUUCUCAACUAUGACACGCAAAACGCGUGCUCCGUUGAAUGGAGUUUAUCAUG: the “polymerase ribozyme fitness (log ratio)” value was -2.57.

Consider GGAUCUUCUCGAUCUAACAAAAAAGACAAAUCUGCCACAAAGCUUGAGAGCAUCAUCGGAUGCAGAGGGGGCAGCCUUCGGUGGCGCGAUAGCGCCAACGUUCUCAACUAUGACACGCAAAACGCGUGCUCCGUUGAAUGGAGUUUAUCAUG, for which the “polymerase ribozyme fitness (log ratio)” value is -3.05.

Take GGAUCUUCUCGAUCUAACAAAAAAGACAAAUCUGCCACAAAGCUUGAGAGCAUCAUUGGAUGCAGAGGCGGCAGCCUUCGGUGGGGCGAUAGCCCCAAGGUUCUCAACUAUGACACGCAAAACGCGUGCUCCGUUGAAUGGAGUUUAUGAUG: the “polymerase ribozyme fitness (log ratio)” value was not above -4.2.

For the variant GGAUCUUCUCGAUCUAACAAAAAAGACAAAUCUGCCACAAAGCUUGAGAGCAUCAUGGGAUGCAGAGGCGGCAGCCUUCGGUGGCGGGAUAGUGCCAACGUUCGCAACUAUGACACGCAAAACGCGUGCUCCGUUGAAUGGAGUUUAUCAUG, the “polymerase ribozyme fitness (log ratio)” value was not above -4.2.

For the variant GGAUCUUCUCGAUCUAACAAAAAAGACAAAUCUGCCACAAAGCUUGAGAGCAUCAUCGGAUGCAGAGGCGGAAGCCUUCGGUGGCGCGAUAGCGCCAAUGUUCUCAACUAUGACACGCAAAACGCAUGCUCCGUUGAACGGAGUUUAUCAUG, the “polymerase ribozyme fitness (log ratio)” value was not above -4.2.

GGAUCUUCUCGAUCUAACAAAAAAGACAAAUCUGCCACAAAGCUUGAGAGCAUCAUCGGAUGCAGAGGCGGAAGCCUUCGGUGGCGCGAUAGCGCCAACGUUCUCAACUAUGACACGCUAAACGCGUGCUCCGUUGAAUGGAGUUUAUCAUG: the “polymerase ribozyme fitness (log ratio)” value is not above -4.2.

For GGAUCUUCUCGAUCUAACAAAAAAGACAAAUCUGCCACAAAGCUUGAGAGCAUCAUCGGAUGAAGAGGCGGCAGCCUUCGGUGGCGCGAUAGCGCCAACGUUCUCAACUAUGACACGCAAAACGCGUGCUCCGUUGAAUGGAGUUUAUCAUG, the “polymerase ribozyme fitness (log ratio)” value was -0.431.

For GGAUCUUCUCGAUCUAACAAAAAAGACAAAUCUGCCACAAAGCUUGAGAGCAUCAUCGGAUGCAGAGGUGGCAGCCUUCGGUGGCGCGAUAGCCCCAACGUUCUCAACUAUGACACGCAAAACGCGUGCUCCGUUGAAUGGAGUUUAUCAUG, the “polymerase ribozyme fitness (log ratio)” value is -3.36.

On to GGAUCUUCUCGAUCUAACAAAAAAGACAAAUCUGCCACAAAGCUUGAGAGCAUCAUUGGAUGCAGAGGCGGCAGCCUUCGGUGGUGCGAUGGCGCCAACGUUCUCAACUAUGACACGCAAAACGCGUGCUCCGUUGAAUGUAGUUUAUCAUG, for which the “polymerase ribozyme fitness (log ratio)” value was -1.7.

On to GGAUCUUCUCGAUCUAACAAAAAAGACAAAUCUGCCACAAAGCUUGAGAGCAUCAUCGGAUGCAGAGGCGGCAGCCUUCGGUGGCGCGAUAGCGCCAACGUUCUCAACUAUGACGCGCAAAACUCGUGCUCCGUUGAAUGGAGUUUAUCAUG, for which the “polymerase ribozyme fitness (log ratio)” value was -0.932.

For the variant GGAUCUUCUCGAUCUAACAAAAAAGACAAAUCUGCCACAAAGCUUGAGAGCAUCAUCGGAUGCAGAGGAGGCAGCCCUCGGUGGCGCGGUAGCGCCAACGUUCUCAACUAUGACACGCAAAACGCGUGCUCCGUUGAAUGGAGUUUAUCAUG, the “polymerase ribozyme fitness (log ratio)” value was not above -4.2.

As to GGAUCUUCUCGAUCUAACAAAAAAGACAAAUCUGCCACAAAGCUUGAGAGCAUCAUCGGAUGCAGAGGCGGCAGCCUUCGGUGGCGCGAUAGCGCCAACGUUCUCAACUAUGACACGCAAAACGCGUGCUCCGUUGAAUGGUGUUUAUCAUG, the “polymerase ribozyme fitness (log ratio)” value was -0.464.

For GGAUCUUCUCGAUCUAACAAAAAAGACAAAUCUGCCACAAAGCUUGAGAGCAUCAUAGGAUGCAGAGGCGGCAGCCUUCGGUGGCGCGAUAGCGCCAACGUUCUCAACUAUGACACGCAAAACGCGUGCUCCGUUGAAUGGAGUUUAUCAUG, the “polymerase ribozyme fitness (log ratio)” value was determined as 0.142.

In the case of GGAUCUUCUCGAUCUAACAAAAAAGACAAAUCUGCCACAAAGCUUGAGAGCAUCAUUGGAUGCAGAGGCGGCAGCCUUCGGUGGCGCGAUAGCGCCAACGUUCUCAACUAUGACACGCAAAACGCGUGCUCCGUUGAAUGGAGUUUAUCAUG, the “polymerase ribozyme fitness (log ratio)” value is 0.643.

Regarding GGAUCUUCUCGAUCUAACAAAAAAGACAAAUCUGCCACAAAGCUUGAGAGCAUCAUCGGAUGCAGAGGCGGUAGCCUUAGGUGGCGCGAUAGCGCCAACGUUCUCAGCUAUGACACGCAAAACGCGUGCUCCGUUGAAUGGAGUUUAUCAUG, the “polymerase ribozyme fitness (log ratio)” value is not above -4.2.

As for GGAUCUUCUCGAUCUAACAAAAAAGACAAAUCUGCCACAAAGCUUGAGAGCAUCAUUGGAUGCAGAGGCGGCAGCCUUCGGUGACGCGAUAGCGCCAACGUUCUCAACUAUGACACGCAAAACGCGUGCUCCGUUGAAUGCAGUUUAUCAUG, the “polymerase ribozyme fitness (log ratio)” value was -0.559.

Consider GGAUCUUCUCGAUCUAACAAAAAAGACAAAUCUGCCACAAAGCUUGAGAGCAUCAUCGGAUGCAGAGGUGGCAGCCUUCGGUGGCGCGAUAGUGCCAACGUUCUCAACUAUGACACGCAAAACGCGUGCUCCGUUGAAUGGAGUUUAUCAUG, for which the “polymerase ribozyme fitness (log ratio)” value is -3.95.

For GGAUCUUCUCGAUCUAACAAAAAAGACAAAUCUGCCACAAAGCUUGAGAGCAUCAUCGGAUGCAGAGGCGGCAGCCUUCGGUGGCGCGAUAGCGCCAACGUUCUCAACUAUGACACGCGAAACGCGUGCUCCGUUGAAGGGAGUUUAUCAUG, the “polymerase ribozyme fitness (log ratio)” value came to 0.219.

Take GGAUCUUCUCGAUCUAACAAAAAAGACAAAUCUGCCACAAAGCUUGAGAGCAUCAUCGGAUGCAGAGGCGGCAGCCUUCGGUGGCGCGAUAGCGCCAACGUUCUCAACUAUGACACGCAAAACGCGUGCUCCGUUGAAUGGAGUUUAUCCUG: the “polymerase ribozyme fitness (log ratio)” value is -3.6.

Regarding GGAUCUUCUCGAUCUAACAAAAAAGACAAAUCUGCCACAAAGCUUGAGAGCAUCAUCGGAUGCAGAGGUGGCAGCCUUCGGUGGCGCGAUAGCGCCAACGUUCUCAACUAUGACACGCAAAACGCGUGCUCCGUUAAAUGGAGUUUAUCAUG, the “polymerase ribozyme fitness (log ratio)” value was -3.04.

With GGAUCUUCUCGAUCUAACAAAAAAGACAAAUCUGCCACAAAGCUUGAGAGCAUCAUCGGAUGCAGAGGCGGCAGCCUUCGGUGGCGCGAUAGCGCCAACGUUCUCAACUAUGUCACGCAAGACGCGUGCUCCGUUGAAGGUAGAUUAUCAUG, the “polymerase ribozyme fitness (log ratio)” value is not above -4.2.

Regarding GGAUCUUCUCGAUCUAACAAAAAAGACAAAUCUGCCACAAAGCUUGAGAGCAUCAUCGGAUGCAGAGGAGGCAGCCUUCGGUGGCGCGAUAGCGCCUACGUCCUCAACUAUGACACGCAAAACGCGUGCUCCGUUGAAUGGAGUUUAUAAUG, the “polymerase ribozyme fitness (log ratio)” value was not above -4.2.

Turning to GGAUCUUCUCGAUCUAACAAAAAAGACAAAUCUGCCACAAAGCUUGAGAGCAUCAUAGGAUGCAGAGGCGGCAGCCUUCGGUGGCGCGAUAGCGUCAACGUUCUCAACUAUGACACGCAAAACGCGUGCUCCGUUGAAUGGAGUUUAUCAUG, the “polymerase ribozyme fitness (log ratio)” value was -0.372.

Take GGAUCUUCUCGAUCUAACAAAAAAGACAAAUCUGCCACAAAGCUUGAGAGCAUCAUCGGAUGCAGAGGCGGUAGCCUUCGGUAGCGCGAUAGCGCCAACGUUCUCAACUAUGACACGCAAAACGCGUGCUCCGUUGAAUGGAGUUUAUCAUG: the “polymerase ribozyme fitness (log ratio)” value is -0.82.

GGAUCUUCUCGAUCUAACAAAAAAGACAAAUCUGCCACAAAGCUUGAGAGCAUCAUCGGAUGCAGAGGCGGCAGCCUUCGGUGGCGCGAUAGCGCCAACGUUCUCAACUAUGACACGCAAUACGCGUGCUCCGUUGAAUGGAGUUUAUCAUG: the “polymerase ribozyme fitness (log ratio)” value is -0.372.

Regarding GGAUCUUCUCGAUCUAACAAAAAAGACAAAUCUGCCACAAAGCUUGAGAGCAUCAUCGGAUGCAGAGGCGGCAGCCUUCGGUGGCGCGAUAGCGCCAACGUUCUCAACUAUGACACGCAAAACGCGUGCUCCGUUGAAUGGAGUUUCUCAUG, the “polymerase ribozyme fitness (log ratio)” value was -1.3.

Consider GGAUCUUCUCGAUCUAACAAAAAAGACAAAUCUGCCACAAAGCUUGAGAGCAUCAUCGGAUGCAGAGGCGGCAGCCUUCGGUGGCGCGAUAGCGCCAACGUUCUCAACUAUGACACGCAAAGCGCGUGCUCCGUUGAAUGGAGUUUAUCAUG, for which the “polymerase ribozyme fitness (log ratio)” value is -0.237.

On to GGAUCUUCUCGAUCUAACAAAAAAGACAAAUCUGCCACAAAGCUUGAGAGCAUCAUUGGAUGCAGCGGCGGCAGCCUUCGGUGGCGCGAUAGCACCAACGUUCUCGACUAUGACACGCAAAACGCGUUCUCCGUUGAAUAGAGUUUAUCAUG, for which the “polymerase ribozyme fitness (log ratio)” value is not above -4.2.

For the variant GGAUCUUCUCGAUCUAACAAAAAAGACAAAUCUGCCACAAAGCUUGAGAGCAUCAUUGGAUGCAGAGGCGGCAGCCUUCGGUGGCGGGAUAGCGCCAACGUUCUCAACUAUGACACGCAAAACGAGUGCUCCGUUGAAUGGAGUUUAUCAUG, the “polymerase ribozyme fitness (log ratio)” value is not above -4.2.

For GGAUCUUCUCGAUCUAACAAAAAAGACAAAUCUGCCACAAAGCUUGAGAGCAUCAUCGGAUGCAGAGGCGGCAGCCUUCGGUGGCGCGAUAGCGCCAACGUUCUCAACUAUGACUCGCAAAACGCGUGCUCCGUUGAAUGGAGUUUAUCAUG, the “polymerase ribozyme fitness (log ratio)” value was -1.89.

For GGAUCUUCUCGAUCUAACAAAAAAGACAAAUCUGCCACAAAGCUUGAGAGCAUCAUCGGAUGGAGAGGCGGCAGCCUUCGGUGGCGCGAUAGCGCCAACGUUCUCAACUAUGACACGCAAUACGCGUGCUCCGUUGAAUGGAGUUUAUCAUG, the “polymerase ribozyme fitness (log ratio)” value is -0.282.

Regarding GGAUCUUCUCGAUCUAACAAAAAAGACAAAUCUGCCACAAAGCUUGAGAGCAUCAUAGGGUGCAGAGGCGGCUGCCUUCGGUGGCGCGAUAGCGCCAACGUUCUCAACUAUGACACGCAAAACGCGUGCUCUGUUGAAUGGAGUGUAUCAUG, the “polymerase ribozyme fitness (log ratio)” value was -2.26.

Turning to GGAUCUUCUCGAUCUAACAAAAAAGACAAAUCUGCCACAAAGCUUGAGAGCAUCAUCGGAUGGAGAGGCGGCAGCUUGCGGUGGCGCGAUACCGCCAACGUUCUCAACUAUGACACGCAAAACGCGUGCUCCGUUUAAUGCAGUUUAUCAUG, the “polymerase ribozyme fitness (log ratio)” value is not above -4.2.

With GGAUCUUCUCGAUCUAACAAAAAAGACAAAUCUGCCACAAAGCUUGAGAGCAUCAUCGGAUGCAGAGGCGGCAGGCGUCGGUGGCGCGAUAGCGCCAACGUUCUCAUCUAUGACACGCAAAACGCGUGCUCCGUUGAAUGGAGUUUAUCAUG, the “polymerase ribozyme fitness (log ratio)” value was not above -4.2.
